Experimental data: US20150344570A1 (published 2015)

T1: FcγRIIb extracellular domain with C-terminal His tag (human, UniProt P31994 43-217)
T1 construct: extracellular domain; expressed in FreeStyle293 cells; analyte in Biacore; also called FcgRIIb; 2b
T1 sequence (looked up): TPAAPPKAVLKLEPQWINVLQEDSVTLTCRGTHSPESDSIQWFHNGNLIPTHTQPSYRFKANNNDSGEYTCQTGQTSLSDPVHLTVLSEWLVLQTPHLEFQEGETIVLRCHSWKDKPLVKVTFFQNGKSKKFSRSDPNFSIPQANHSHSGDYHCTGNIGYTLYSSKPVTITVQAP


What was measured:
[1] = biological target: T2, FcγRIa extracellular domain with C-terminal His tag (human, UniProt P12314 16-292); experiment: SPR (Biacore), captured antibody, FcγR as analyte; relative binding
T2 construct: extracellular domain; expressed in FreeStyle293 cells; analyte in Biacore; also called FcgRI; 1a
T2 sequence (P12314 16-292): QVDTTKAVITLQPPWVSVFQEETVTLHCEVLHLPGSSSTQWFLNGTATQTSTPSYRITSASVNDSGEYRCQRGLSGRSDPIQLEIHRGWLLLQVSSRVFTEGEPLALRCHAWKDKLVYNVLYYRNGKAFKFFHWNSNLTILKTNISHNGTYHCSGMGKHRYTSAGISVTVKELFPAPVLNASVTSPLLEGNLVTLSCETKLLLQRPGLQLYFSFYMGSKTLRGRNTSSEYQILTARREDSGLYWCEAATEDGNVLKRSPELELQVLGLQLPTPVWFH

[2] = biological target: T1, FcγRIIb extracellular domain with …; experiment: as above

| Binder | He/Con_1a [1] | He/Con_2b [2] |
| --- | --- | --- |
| GpH7-A5/GpH7-B3 variant S298_18N/GpL16-k0 (antibody, human IgG1, kappa, He Ab; IgG1, mutation in one H chain) heavy 1: not shown heavy 2: not shown light: DIVMTQSPLSLPVTPGEPASISCQASESLVHSNRNTYLHWYLQKPGQSPQLLIYKVSNRFSGVPDRFSGSGSGTDFTLKISRVEAEDVGVYYCSQNTHVPPTFGQGTKVEIERTVAAPSVFIFPPSDEQLKSGTASVVCLLNNFYPREAKVQWKVDNALQSGNSQESVTEQDSKDSTYSLSSTLTLSKADYEKHKVYACEVTHQGLSSPVTKSFNRGEC | 108 % of HeCon Ab (GpH7-A5/GpH7-B3/GpL16-k0 = 100) | 48.1 % of HeCon Ab (GpH7-A5/GpH7-B3/GpL16-k0 = 100) |
| GpH7-A5/GpH7-B3 variant Y296_04F/GpL16-k0 (antibody, human IgG1, kappa, He Ab; IgG1, mutation in one H chain) heavy 1: not shown heavy 2: not shown light: DIVMTQSPLSLPVTPGEPASISCQASESLVHSNRNTYLHWYLQKPGQSPQLLIYKVSNRFSGVPDRFSGSGSGTDFTLKISRVEAEDVGVYYCSQNTHVPPTFGQGTKVEIERTVAAPSVFIFPPSDEQLKSGTASVVCLLNNFYPREAKVQWKVDNALQSGNSQESVTEQDSKDSTYSLSSTLTLSKADYEKHKVYACEVTHQGLSSPVTKSFNRGEC | 104 % of HeCon Ab (GpH7-A5/GpH7-B3/GpL16-k0 = 100) | 99.2 % of HeCon Ab (GpH7-A5/GpH7-B3/GpL16-k0 = 100) |
| GpH7-A5/GpH7-B3 variant S324_03V/GpL16-k0 (antibody, human IgG1, kappa, He Ab; IgG1, mutation in one H chain) heavy 1: not shown heavy 2: not shown light: DIVMTQSPLSLPVTPGEPASISCQASESLVHSNRNTYLHWYLQKPGQSPQLLIYKVSNRFSGVPDRFSGSGSGTDFTLKISRVEAEDVGVYYCSQNTHVPPTFGQGTKVEIERTVAAPSVFIFPPSDEQLKSGTASVVCLLNNFYPREAKVQWKVDNALQSGNSQESVTEQDSKDSTYSLSSTLTLSKADYEKHKVYACEVTHQGLSSPVTKSFNRGEC | 104 % of HeCon Ab (GpH7-A5/GpH7-B3/GpL16-k0 = 100) | 97.8 % of HeCon Ab (GpH7-A5/GpH7-B3/GpL16-k0 = 100) |
| GpH7-A5/GpH7-B3 variant Y296_01G/GpL16-k0 (antibody, human IgG1, kappa, He Ab; IgG1, mutation in one H chain) heavy 1: not shown heavy 2: not shown light: DIVMTQSPLSLPVTPGEPASISCQASESLVHSNRNTYLHWYLQKPGQSPQLLIYKVSNRFSGVPDRFSGSGSGTDFTLKISRVEAEDVGVYYCSQNTHVPPTFGQGTKVEIERTVAAPSVFIFPPSDEQLKSGTASVVCLLNNFYPREAKVQWKVDNALQSGNSQESVTEQDSKDSTYSLSSTLTLSKADYEKHKVYACEVTHQGLSSPVTKSFNRGEC | 103 % of HeCon Ab (GpH7-A5/GpH7-B3/GpL16-k0 = 100) | 79.3 % of HeCon Ab (GpH7-A5/GpH7-B3/GpL16-k0 = 100) |
| GpH7-A5/GpH7-B3 variant S324_07I/GpL16-k0 (antibody, human IgG1, kappa, He Ab; IgG1, mutation in one H chain) heavy 1: not shown heavy 2: not shown light: DIVMTQSPLSLPVTPGEPASISCQASESLVHSNRNTYLHWYLQKPGQSPQLLIYKVSNRFSGVPDRFSGSGSGTDFTLKISRVEAEDVGVYYCSQNTHVPPTFGQGTKVEIERTVAAPSVFIFPPSDEQLKSGTASVVCLLNNFYPREAKVQWKVDNALQSGNSQESVTEQDSKDSTYSLSSTLTLSKADYEKHKVYACEVTHQGLSSPVTKSFNRGEC | 102 % of HeCon Ab (GpH7-A5/GpH7-B3/GpL16-k0 = 100) | 95.7 % of HeCon Ab (GpH7-A5/GpH7-B3/GpL16-k0 = 100) |
| GpH7-A5/GpH7-B3 variant S298_19Q/GpL16-k0 (antibody, human IgG1, kappa, He Ab; IgG1, mutation in one H chain) heavy 1: not shown heavy 2: not shown light: DIVMTQSPLSLPVTPGEPASISCQASESLVHSNRNTYLHWYLQKPGQSPQLLIYKVSNRFSGVPDRFSGSGSGTDFTLKISRVEAEDVGVYYCSQNTHVPPTFGQGTKVEIERTVAAPSVFIFPPSDEQLKSGTASVVCLLNNFYPREAKVQWKVDNALQSGNSQESVTEQDSKDSTYSLSSTLTLSKADYEKHKVYACEVTHQGLSSPVTKSFNRGEC | 109 % of HeCon Ab (GpH7-A5/GpH7-B3/GpL16-k0 = 100) | 73.3 % of HeCon Ab (GpH7-A5/GpH7-B3/GpL16-k0 = 100) |
| GpH7-A5/GpH7-B3 variant Y296_03V/GpL16-k0 (antibody, human IgG1, kappa, He Ab; IgG1, mutation in one H chain) heavy 1: not shown heavy 2: not shown light: DIVMTQSPLSLPVTPGEPASISCQASESLVHSNRNTYLHWYLQKPGQSPQLLIYKVSNRFSGVPDRFSGSGSGTDFTLKISRVEAEDVGVYYCSQNTHVPPTFGQGTKVEIERTVAAPSVFIFPPSDEQLKSGTASVVCLLNNFYPREAKVQWKVDNALQSGNSQESVTEQDSKDSTYSLSSTLTLSKADYEKHKVYACEVTHQGLSSPVTKSFNRGEC | 104 % of HeCon Ab (GpH7-A5/GpH7-B3/GpL16-k0 = 100) | 79.3 % of HeCon Ab (GpH7-A5/GpH7-B3/GpL16-k0 = 100) |
| GpH7-A5/GpH7-B3 variant S298_20W/GpL16-k0 (antibody, human IgG1, kappa, He Ab; IgG1, mutation in one H chain) heavy 1: not shown heavy 2: not shown light: DIVMTQSPLSLPVTPGEPASISCQASESLVHSNRNTYLHWYLQKPGQSPQLLIYKVSNRFSGVPDRFSGSGSGTDFTLKISRVEAEDVGVYYCSQNTHVPPTFGQGTKVEIERTVAAPSVFIFPPSDEQLKSGTASVVCLLNNFYPREAKVQWKVDNALQSGNSQESVTEQDSKDSTYSLSSTLTLSKADYEKHKVYACEVTHQGLSSPVTKSFNRGEC | 104 % of HeCon Ab (GpH7-A5/GpH7-B3/GpL16-k0 = 100) | 41.1 % of HeCon Ab (GpH7-A5/GpH7-B3/GpL16-k0 = 100) |
| GpH7-A5/GpH7-B3 variant S324_02A/GpL16-k0 (antibody, human IgG1, kappa, He Ab; IgG1, mutation in one H chain) heavy 1: not shown heavy 2: not shown light: DIVMTQSPLSLPVTPGEPASISCQASESLVHSNRNTYLHWYLQKPGQSPQLLIYKVSNRFSGVPDRFSGSGSGTDFTLKISRVEAEDVGVYYCSQNTHVPPTFGQGTKVEIERTVAAPSVFIFPPSDEQLKSGTASVVCLLNNFYPREAKVQWKVDNALQSGNSQESVTEQDSKDSTYSLSSTLTLSKADYEKHKVYACEVTHQGLSSPVTKSFNRGEC | 103 % of HeCon Ab (GpH7-A5/GpH7-B3/GpL16-k0 = 100) | 78.3 % of HeCon Ab (GpH7-A5/GpH7-B3/GpL16-k0 = 100) |
| GpH7-A5/GpH7-B3 variant Y296_02A/GpL16-k0 (antibody, human IgG1, kappa, He Ab; IgG1, mutation in one H chain) heavy 1: not shown heavy 2: not shown light: DIVMTQSPLSLPVTPGEPASISCQASESLVHSNRNTYLHWYLQKPGQSPQLLIYKVSNRFSGVPDRFSGSGSGTDFTLKISRVEAEDVGVYYCSQNTHVPPTFGQGTKVEIERTVAAPSVFIFPPSDEQLKSGTASVVCLLNNFYPREAKVQWKVDNALQSGNSQESVTEQDSKDSTYSLSSTLTLSKADYEKHKVYACEVTHQGLSSPVTKSFNRGEC | 103 % of HeCon Ab (GpH7-A5/GpH7-B3/GpL16-k0 = 100) | 82 % of HeCon Ab (GpH7-A5/GpH7-B3/GpL16-k0 = 100) |

The next lines start with the values.

| He/Con_1a [1] | He/Con_2b [2] | Binder |
| --- | --- | --- |
| 106 % of HeCon Ab (GpH7-A5/GpH7-B3/GpL16-k0 = 100) | 98 % of HeCon Ab (GpH7-A5/GpH7-B3/GpL16-k0 = 100) | GpH7-A5/GpH7-B3 variant Y296_10E/GpL16-k0 (antibody, human IgG1, kappa, He Ab; IgG1, mutation in one H chain) heavy 1: not shown heavy 2: not shown light: DIVMTQSPLSLPVTPGEPASISCQASESLVHSNRNTYLHWYLQKPGQSPQLLIYKVSNRFSGVPDRFSGSGSGTDFTLKISRVEAEDVGVYYCSQNTHVPPTFGQGTKVEIERTVAAPSVFIFPPSDEQLKSGTASVVCLLNNFYPREAKVQWKVDNALQSGNSQESVTEQDSKDSTYSLSSTLTLSKADYEKHKVYACEVTHQGLSSPVTKSFNRGEC |
| 104 % of HeCon Ab (GpH7-A5/GpH7-B3/GpL16-k0 = 100) | 87.8 % of HeCon Ab (GpH7-A5/GpH7-B3/GpL16-k0 = 100) | GpH7-A5/GpH7-B3 variant Y296_06M/GpL16-k0 (antibody, human IgG1, kappa, He Ab; IgG1, mutation in one H chain) heavy 1: not shown heavy 2: not shown light: DIVMTQSPLSLPVTPGEPASISCQASESLVHSNRNTYLHWYLQKPGQSPQLLIYKVSNRFSGVPDRFSGSGSGTDFTLKISRVEAEDVGVYYCSQNTHVPPTFGQGTKVEIERTVAAPSVFIFPPSDEQLKSGTASVVCLLNNFYPREAKVQWKVDNALQSGNSQESVTEQDSKDSTYSLSSTLTLSKADYEKHKVYACEVTHQGLSSPVTKSFNRGEC |
| 106 % of HeCon Ab (GpH7-A5/GpH7-B3/GpL16-k0 = 100) | 98.9 % of HeCon Ab (GpH7-A5/GpH7-B3/GpL16-k0 = 100) | GpH7-A5/GpH7-B3 variant Y296_09D/GpL16-k0 (antibody, human IgG1, kappa, He Ab; IgG1, mutation in one H chain) heavy 1: not shown heavy 2: not shown light: DIVMTQSPLSLPVTPGEPASISCQASESLVHSNRNTYLHWYLQKPGQSPQLLIYKVSNRFSGVPDRFSGSGSGTDFTLKISRVEAEDVGVYYCSQNTHVPPTFGQGTKVEIERTVAAPSVFIFPPSDEQLKSGTASVVCLLNNFYPREAKVQWKVDNALQSGNSQESVTEQDSKDSTYSLSSTLTLSKADYEKHKVYACEVTHQGLSSPVTKSFNRGEC |
| 104 % of HeCon Ab (GpH7-A5/GpH7-B3/GpL16-k0 = 100) | 82.3 % of HeCon Ab (GpH7-A5/GpH7-B3/GpL16-k0 = 100) | GpH7-A5/GpH7-B3 variant Y296_08L/GpL16-k0 (antibody, human IgG1, kappa, He Ab; IgG1, mutation in one H chain) heavy 1: not shown heavy 2: not shown light: DIVMTQSPLSLPVTPGEPASISCQASESLVHSNRNTYLHWYLQKPGQSPQLLIYKVSNRFSGVPDRFSGSGSGTDFTLKISRVEAEDVGVYYCSQNTHVPPTFGQGTKVEIERTVAAPSVFIFPPSDEQLKSGTASVVCLLNNFYPREAKVQWKVDNALQSGNSQESVTEQDSKDSTYSLSSTLTLSKADYEKHKVYACEVTHQGLSSPVTKSFNRGEC |
| 104 % of HeCon Ab (GpH7-A5/GpH7-B3/GpL16-k0 = 100) | 84.3 % of HeCon Ab (GpH7-A5/GpH7-B3/GpL16-k0 = 100) | GpH7-A5/GpH7-B3 variant Y296_07I/GpL16-k0 (antibody, human IgG1, kappa, He Ab; IgG1, mutation in one H chain) heavy 1: not shown heavy 2: not shown light: DIVMTQSPLSLPVTPGEPASISCQASESLVHSNRNTYLHWYLQKPGQSPQLLIYKVSNRFSGVPDRFSGSGSGTDFTLKISRVEAEDVGVYYCSQNTHVPPTFGQGTKVEIERTVAAPSVFIFPPSDEQLKSGTASVVCLLNNFYPREAKVQWKVDNALQSGNSQESVTEQDSKDSTYSLSSTLTLSKADYEKHKVYACEVTHQGLSSPVTKSFNRGEC |
